Results published in paper PMC5813253.

Experiments:
[1] = target: TssK (V. cholerae (endogenous)); assay: cryo-EM structure
[2] = target: VgrG trimer of the central spike (V. cholerae (endogenous)); assay: cryo-EM structure

| Substance | stoichiometry N [1] | stoichiometry N [2] |
| --- | --- | --- |
| TssK (natural protein) | 3 |  |
| VgrG trimer of the central spike |  | 3 |
